Laboratory results from article PMC2765170 (PLoS ONE, 2009).

How the values were obtained:
[1] = system: CC(C)(COP(=O)(O)OP(=O)(O)OC[C@H]1O[C@@H](n2cnc3c(N)ncnc32)[C@H](O)[C@@H]1O)[C@@H](O)C(=O)NCCC(=O)NCCS; experiment: purified protein; conditions: co-substrate ATP, MgCl2, 25°C
[2] = system: Nc1ncnc2c1ncn2[C@@H]1O[C@H](COP(=O)(O)OP(=O)(O)OP(=O)(O)O)[C@@H](O)[C@H]1O; experiment: purified protein; conditions: co-substrate DCoA, MgCl2, 25°C
[3] = system: Nc1ncnc2c1ncn2[C@H]1C[C@H](O)[C@@H](COP(=O)(O)OP(=O)(O)OP(=O)(O)O)O1; experiment: purified protein; conditions: alternate phosphate donor, co-substrate DCoA
[4] = target: CoaE (M. tuberculosis dephosphocoenzyme A kinase, Rv1631) (Mycobacterium tuberculosis, UniProt P9WPA3); experiment: biochemical; assay type: binding; conditions: read-out: Ka (M^-1*104) (converted)
Sequence of CoaE (M. tuberculosis dephosphocoenzyme A kinase, Rv1631) (P9WPA3 whole entry): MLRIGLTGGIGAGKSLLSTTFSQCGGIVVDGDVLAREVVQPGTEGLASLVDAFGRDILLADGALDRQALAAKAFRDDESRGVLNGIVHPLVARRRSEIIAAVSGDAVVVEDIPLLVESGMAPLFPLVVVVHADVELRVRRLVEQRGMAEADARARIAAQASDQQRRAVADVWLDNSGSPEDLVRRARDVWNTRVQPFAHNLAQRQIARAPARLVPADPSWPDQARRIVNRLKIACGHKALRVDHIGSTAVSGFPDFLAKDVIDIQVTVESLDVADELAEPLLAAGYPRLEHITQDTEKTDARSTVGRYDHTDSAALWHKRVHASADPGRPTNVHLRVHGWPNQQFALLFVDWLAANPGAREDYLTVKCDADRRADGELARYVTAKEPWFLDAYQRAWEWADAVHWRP

Work on “CoaE (M. tuberculosis dephosphocoenzyme A kinase, Rv1631) (Mycobacterium tuberculosis H37Rv)” yielded a Km [1] of 34.9 µM, a Km [2] of 56.8 µM and a Km [3] of 320 µM.

With Nc1ncnc2c1ncn2[C@@H]1O[C@H](COP(=O)(O)OP(=O)(O)O)[C@@H](O)[C@H]1O [ADP] the Kd [4] was 49.3 µM.

In the case of Nc1ncnc2c1ncn2[C@H]1C[C@H](O)[C@@H](COP(=O)(O)OP(=O)(O)OP(=O)(O)O)O1 [dATP], the Kd [4] is reported as 57.5 µM.

Nc1ccn([C@@H]2O[C@H](COP(=O)(O)OP(=O)(O)OP(=O)(O)O)[C@@H](O)[C@H]2O)c(=O)n1 [CTP] was tested, and the Kd [4] was 62.9 µM.
